This is an account of results in PMC10350030 (bioRxiv, 2023).

In the test the target is biotin-Aβ42 (UniProt P05067 672-713, biotin (site not stated)). Nature of the test: single-molecule TIRF microscopy.
Sequence of biotin-Aβ42 (P05067 672-713): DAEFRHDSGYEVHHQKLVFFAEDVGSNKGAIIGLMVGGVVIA

B1: Cy3-labeled ceruloplasmin (enzyme, human, UniProt P00450 20-1065, looked up)
chain: KEKHYYIGIIETTWDYASDHGEKKLISVDTEHSNIYLQNGPDRIGRLYKKALYLQYTDETFRTTIEKPVWLGFLGPIIKAETGDKVYVHLKNLASRPYTFHSHGITYYKEHEGAIYPDNTTDFQRADDKVYPGEQYTYMLLATEEQSPGEGDGNCVTRIYHSHIDAPKDIASGLIGPLIICKKDSLDKEKEKHIDREFVVMFSVVDENFSWYLEDNIKTYCSEPEKVDKDNEDFQESNRMYSVNGYTFGSLPGLSMCAEDRVKWYLFGMGNEVDVHAAFFHGQALTNKNYRIDTINLFPATLFDAYMVAQNPGEWMLSCQNLNHLKAGLQAFFQVQECNKSSSKDNIRGKHVRHYYIAAEEIIWNYAPSGIDIFTKENLTAPGSDSAVFFEQGTTRIGGSYKKLVYREYTDASFTNRKERGPEEEHLGILGPVIWAEVGDTIRVTFHNKGAYPLSIEPIGVRFNKNNEGTYYSPNYNPQSRSVPPSASHVAPTETFTYEWTVPKEVGPTNADPVCLAKMYYSAVEPTKDIFTGLIGPMKICKKGSLHANGRQKDVDKEFYLFPTVFDENESLLLEDNIRMFTTAPDQVDKEDEDFQESNKMHSMNGFMYGNQPGLTMCKGDSVVWYLFSAGNEADVHGIYFSGNTYLWRGERRDTANLFPQTSLTLHMWPDTEGTFNVECLTTDHYTGGMKQKYTVNQCRRQSEDSTFYLGERTYYIAAVEVEWDYSPQREWEKELHHLQEQNVSNAFLDKGEFYIGSKYKKVVYRQYTDSTFRVPVERKAEEEHLGILGPQLHADVGDKVKIIFKNMATRPYSIHAHGVQTESSTVTPTLPGETLTYVWKIPERSGAGTEDSACIPWAYYSTVDQVKDLYSGLIGPLIVCRRPYLKVFNPRRKLEFALLFLVFDENESWYLDDNIKTYSDHPEKVNKDDEEFIESNKMHAINGRMFGNLQGLTMHVGDEVNWYLMGMGNEIDLHTVHFHGHSFQYKHRGVYSSDVFDIFPGTYQTLEMFPRTPGIWLLHCHVTDHIHAGMETTYTVLQNEDTKSG
modifications: Cy3 label (site not stated)
On to B1, for which the “half-lifetime of transient binding” value is roughly 14.6 s.
